Test system: IL2 signaling pathway (STAT5 phosphorylation) in mouse splenocytes
Assay: Flow cytometry detection of pSTAT5 expression in T cells and NK cells after IL2 stimulation, IL2RB/IL2RG/IL15/IL15RA four-gene humanized mice
Type: cell-based
Details: for pSTAT5 expression (CD4+ T cell) / pSTAT5 expression (CD8a+ cell) / pSTAT5 expression (NK1.1+ cell): splenocytes, 10 μg/mL IL2
Experimental: The IL2 and IL15 signaling pathways in IL2RB/IL2RG double-gene humanized mice were detected by flow cytometry. Specifically, three 6-week old female C57BL/6 wild-type mice (+/+), three IL2RB/IL2RG double-gene humanized heterozygous mice (H/+; H/+), and three IL2RB/IL2RG double-gene humanized homozygous mice (H/H; H/H) were selected. […] No primary antibody was added to the corresponding secondary antibody control groups.
The IL2 and IL15 signaling pathways in IL2RB/IL2RG/IL15/IL15RA four-gene humanized mice were detected by flow cytometry. […] The cells were stained with: Brilliant Violet 421™ anti-mouse NK-1.1 Antibody, APC anti-mouse CD4 Antibody, and/or Alexa Fluor 700 anti-mouse CD8a Antibody, and then subjected to flow cytometry analysis.

[1] = IL2RB/IL2RG/IL15/IL15RA four-gene humanized homozygous mice (H/H)

B1: mIL2: Biotinylated Mouse IL-2 Protein, purchased from Kactus Biosystems (protein, UniProt P04351 21-169, looked up)
Interleukin-2: APTSSSTSSSTAEAQQQQQQQQQQQQHLEQLLMDLQELLSRMENYRNLKLPRMLTFKFYLPKQATELKDLQCLEDELGPLRHVLDLTQSKSFQLEDAENFISNIRVTVVKLKGSDNTFECQFDDESATVVDFLRRWIAFCQSIISTSPQ
modifications: biotinylated
notes: Biotinylated Mouse IL-2 Protein, purchased from Kactus Biosystems
pSTAT5 expression (CD4+ T cell) [1]: 5.3% | pSTAT5 expression (CD8a+ cell) [1]: 12.5% | pSTAT5 expression (NK1.1+ cell) [1]: 70.7% | phosphorylated expression of STAT5 after stimulation (in words) (splenocytes of +/+ and four-gene humanized homozygous (H/H) mice, 10 μg/mL): phosphorylated expression of STAT5 was detected | pSTAT5 expression (CD4+ T cell) (wild-type C57BL/6 mice (+/+)): 16.6% | pSTAT5 expression (CD8a+ cell) (wild-type C57BL/6 mice (+/+)): 89.9% | pSTAT5 expression (NK1.1+ cell) (wild-type C57BL/6 mice (+/+)): 41.6%

Reference: patent US20250302016A1, “GENETICALLY MODIFIED NON-HUMAN ANIMAL WITH HUMAN OR CHIMERIC GENES” (Biocytogen Pharmaceuticals (Beijing) Co., Ltd., priority 2022, published 2025)
